The subject of series [1] is BT474 and MDA-MB-231 human xenograft breast tumors in nude mice. Briefly: In vivo photoacoustic imaging of peptide uptake in xenograft breast tumors. Also noted: species or system nude mouse. On the procedure:
(§1) BT474 cells were diluted in growth factor reduced (GFR) Matrigel Matrix (Corning), and injected into one flank of female nude athymic mice (002019 Foxn1 , Jackson Laboratory) at 4–6 weeks of age with weight between 20–25 grams. A 0.18 mg 17-β-Estradiol pellet (#SE-121, Innovative Research of America) with 60 day release form was placed subcutaneously around the neck 1 day prior to tumor implantation to stimulate tumor growth. ∼1 × 10^7 cells were implanted for each tumor, and 2–3 implantations were performed in each mouse. MDA-MB-231 tumors were generated similarly except without Matrigel Matrix injection and only one implantation was performed in each mouse. Tumor size was monitored by ultrasound and MRI weekly. For all in vivo animal experiments, anesthesia was induced and maintained with inhaled isoflurane mixed with oxygen at a concentration of 2–4% at a flow rate of ~0.5 L/min via a nose cone.
(§2) We used photoacoustic tomography (Nexus128, Endra Inc) to measure peptide uptake by the human xenograft breast tumors. This system provides laser excitation with 7 ns pulses, 25 mJ/pulse, […] repetition rate, and tunable wavelength from 680 nm to 950 nm. The acoustic signal was collected with 128 unfocused (3 mm diameter) ultrasound transducers with 5 MHz center frequency assembled in a hemispherical bowl in a helical pattern. Water was added to the bowl to transmit the acoustic signal. We collected photoacoustic images with 120 views at 60 pulses/view. Each image covered a volume of 25 × 25 × 25 mm^3 with a voxel size of 280 μm^3, and each dataset required ~6–7 min for acquisition.
(§3) For imaging, the animals were placed inside a tray with the tumor positioned inside a water-filled dimple that couples the ultrasound signal. KSP*-IR800 was injected via tail vein at a concentration of 300 μM in a volume of 250 μL. Photoacoustic images were acquired at 0, 1, 2, 3, 6, 12, and 24 hours post-injection using λex = 780 nm excitation. PPS*-IR800 was administered in the same animal 48 hours later for control after the target peptide cleared as defined by T/B ratio returning to ∼1. IRDye800 (fluorophore without peptide) at the same concentration was also administered for control.
(§4) After completion of imaging, 3D images were reconstructed using data acquired from all 128 transducers at each view using a back-projection algorithm to correct for variations in laser intensity from pulse-to-pulse and small changes in temperature that affect the velocity of acoustic waves in water. The reconstructed raw data was analyzed using Osirix 6.5.2 software (Pixmeo) to generate a maximum intensity projection (MIP) image. To calculate the T/B ratio, the mean photoacoustic signal was measured from the tumor (target) using a circular ROI function on 2D MIP images. For background, we used the same ROI as that for the tumor prior to injection of peptide. The adjacent annulus with same area was used measure the background.

The conditions of series [2]: Sprague-Dawley rats; cited from earlier work. From the text:
We validated specific binding of this peptide labeled with IRDye800CW to ErbB2 using siRNA knockdown and competition with cells in vitro and with immunohistochemistry and immunofluorescence studies on tissue specimens using known monoclonal anti-ErbB2 antibodies. Also, we have previously used peptides labeled with fluorescein isothiocyanate (FITC) in human clinical studies in hollow organs[25],[26]. We used IRDye800CW to image breast can ...

The nature of series [3]: In vivo photoacoustic imaging of peptide uptake in xenograft breast tumors. Also on record: species or system human xenograft, nude mouse. Particulars: female, nude athymic (002019 Foxn1 <nu>), mouse, in vivo, iv, 75 nmol per mouse, BT474 and MDA-MB-231 tumors, tail vein, 300 μM in 250 μL. Here is the method:
as §1, §2, §3, §4

Series [4] deals with tumor and internal organs of tumor-bearing mouse. Kind of series: Peptide biodistribution ex vivo. The series is classed as in vivo. Particulars: n = 5 mice. An excerpt:
(§5) High peptide uptake seen from the kidneys is consistent with renal clearance.
Figure 5 Peptide biodistribution. […] Strong signal from kidneys support renal clearance. (C) Quantified fluorescence intensities are shown for tumor and other organs from n = 5 mice. We fit a two-way ANOVA model to log-transformed data with terms for 11 tissues and 5 mice and tested each tissue mean against the mean for tumors. Kidney had 1.7 times more intense signals on average (P = 0.03), while all other tissues had at least 2-fold lower signals than tumor on average (P = 0.008 for lung was the largest P-value).

Series [5] is described as follows: Histology (H&E) for acute toxicity. The format is in vivo, mouse. The settings on record: mice euthanized after imaging; KSP*-IR800 by tail vein.
From the text: as §5

Read-outs that look alike come from different tables or passages of the source. Residues, ends and D or L forms follow the SMILES beside them. *: point of attachment. X1 = CC1(C)C(/C=C/C2=C(Oc3ccc(S(=O)(=O)O)cc3)C(=C/C=C3/N(CCCCS(=O)(=O)[O-])c4ccc(S(=O)(=O)O)cc4C3(C)C)/CCC2)=[N+](CCCCCC(=O)NCCN2C(=O)CC(*)C2=O)c2ccc(S(=O)(=O)O)cc21

With `CC1(C)C(/C=C/C2=C(Oc3ccc(S(=O)(=O)O)cc3)C(=C/C=C3/N(CCCCS(=O)(=O)O)c4ccc(S(=O)(=O)[O-])cc4C3(C)C)/CCC2)=[N+](CCCCCC(=O)O)c2ccc(S(=O)(=O)O)cc21` [IRDye800, reference compound], the “time of peak signal” value in series [1] (IRDye800 without peptide, same concentration, post-injection) stood at 2 h. Besides, in series [1] (IRDye800 without peptide, same concentration, qualitative), the “photoacoustic tumor signal of fluorophore alone” value is recorded as “significantly lower signal”. In addition, in series [2], the “intravenous dose up to which safety was published” value was “up to 20 mg/kg”.

Take `CC1(C)C(/C=C/C2=C(Oc3ccc(S(=O)(=O)O)cc3)C(=C/C=C3/N(CCCCS(=O)(=O)[O-])c4ccc(S(=O)(=O)O)cc4C3(C)C)/CCC2)=[N+](CCCCCC(=O)NCCN2C(=O)CC(SC[C@H](NC(=O)[C@H](CO)NC(=O)CNC(=O)CNC(=O)CNC(=O)[C@H](Cc3ccccc3)NC(=O)[C@H](CCCNC(=N)N)NC(=O)[C@@H]3CCCN3C(=O)[C@H](CC(N)=O)NC(=O)[C@@H]3CCCN3C(=O)[C@H](CO)NC(=O)[C@@H](N)CCCCN)C(N)=O)C2=O)c2ccc(S(=O)(=O)O)cc21` (some centres unmarked) [KSP*-IR800] (H-KSPNPRFGGGSC(X1)-NH2): the time after injection in series [3] (read-out: time to return to baseline levels (T/B ratio)) was ~24; in series [3] (λex = 780 nm, read-out: time of peak peptide uptake (T/B ratio)), 1. For the same molecule, in series [1] (photoacoustic tomography, systemic administration, nude mice (Discussion)), the “time of rapid tumor uptake” value was ~1 h. The “T/B ratio at ∼24 hours (clearance)” value in series [1] (∼24 hours post-injection, tail vein, 300 μM in 250 μL) was ~1. Moreover, the “kidney signal relative to tumor (times more intense)” value in series [4] (1 hour after injection, two-way ANOVA, P = 0.03) stood at 1.7 times. In addition, the “signal in all other tissues than kidney, fold lower than tumor” value in series [4] (liver, heart, stomach, brain, lung, spleen, small intestine, cecum, colon, 1 hour after injection, largest P = 0.008 (lung)) was “at least 2 fold”. Moreover, the “fluorescence intensity from tumor compared with other organs” value in series [4] (qualitative) was “significantly greater fluorescence intensity from the tumor”. The “acute toxicity on histology (H&E)” value in series [5] was “no acute toxicity”.

These data come from PMC5663926, “In vivo near-infrared imaging of ErbB2 expressing breast tumors with dual-axes confocal endomicroscopy using a targeted peptide” (Scientific Reports, 2017).
